The nature of this data set: label from the status in PepcDB records.
Turning to “MRCCHSGKSYRLWGHRSSQRHRSGETGRGRLRIDQPGAASRRGSRALSWCGCHHVPCPDVTGAGRVRATCRRSFVHERNPHLHMLDAFHRGDVGLYTGTMTAPALLSREAELSRRDLIALESRLREAVSRFLPFKAYSLYFPREAETVEPLWLPGEGRLLLPLIHGGALLAVFVARGVPRRIVRSLMPAFPGLLALCMENLALYKAGRTDALTGLSTRQHLVERMAREADHVRTCFANPPEGEGDLGAPLHRACMGLVVVRLASLRQVARDHGYTFADRLTTELARELSALAPEQALAARTGDYEFALLVPAAASGVCRKLAEEAVQRLSAVSLRCGLTEKAVRVCVSAGYAVYPRDMEGALFERDMAEQARVLLRKARLAAAVAGEGEGSEGPGVMGFARILAEGGAVVETHPLSRVMVNLGRSMNAREGQRFSVWSVAYPVRGGTHEPRQPLYKGEVVLLEVREDRSVAEILHLGDPTWPIEPGDRLTLLPEEKGGDARRDASGVQVDPLTGLYRHGDFLARWSEAREGCDCFALALVRFSDDGRDPEGRASHPEQLMAEAAQLCRDHFGAETLGGRYGLNSIVFFHPDMTCDAARESYRQLCDLLSKRLRIDAAVGVGCHPFLAYRRADALENALKALEYALLLPEPRVGIFDSLALNISADKRFSLGDTFGAIEEYKTALLADEGNTMAWNSLGVCMAGLGRHGEARRYFEQALQRKPGDPMALYNLGTVCQSLGETAEARKQYRKCLKYAPGHVFALVRLGQLAEGEKRYAQARQYFNKAARAGDSGGLVHRNLARLSMRQGRPDEAREHLHDALLRNPQDAVALQLMARLYLDGGEDPAMAEALSRQSVALRPDLKQGWLELARALDARGHVAEAREARLRAGER”, the protein production result is “failed”.
Then “MRCGWLLGFLFLLSVLSYPRPAVAMTVLAEEYAPLSYSVDGQPRGFAVELFHELERRLALPPSDVTFMAWSRAYRLLLRGPRHAILFMGRTMEREDKVWFVGPIWVEDDYFYKKAGSHVAAATLDEARTVSRIGVVRDDFYQLRLQEMGFTNLDLGTSHEQGLRKLAQGRVDLVPMGELTAASQIANYPGLSMDSFERTDIHLLRSEMYIGFSRDMAWVEVERWQKALDHLRQDGTYDQILRKFVPQWRSR”, with “failed”; and “MRCKRHTVDFSSSIGVCASCLRERLFTLAVSTAASENDDNDHRHSRISPPPLLFPRSVSPYVAPRKSDAGTGTGAGGRDSVASSNNRFFATPQVVVQSSSSEKVFESDRSFKKKKSGLSRFSSFFRTRSDDYDSRRDSCDASTVFSQPSSATTSRSWFSKVISVRSKKQSTTNTCYIEDLIASESDHHHHNQNRPRQRYCRGMSPAGDSTTNDESVEESPGRLRRTPVMGTPGRKKTATIGIGRSVSGMAFCLSPLVRAKPNCSSNWKAKFPPDFGYSGELKSPAKPHLSTAASFCGNRSKKLVDLGRVDHRR”, with “failed”; and “MRCRVYYEDTDSEGVVYHANYLKYCERARSEFFFKQNVLPENEEGVFVIRSIKADFFTPASLGQVLEIRTQIKELRKVFVVLFQEIYCIQNASLEPMKPFKVFASEIKFGFVNRSTYSPIAIPKLFKELLNAI”, with “failed”.
To “MRDFLVRYFPTFMLTVLLGCFSASLLLSLAGTTYWRAMAPPQRDEYLLFGLLVLIPLLVLGNLLIVRGISRAVWLVAGYFVACLLGVVPMFQYHPHQGVYLFGVLLPLLGLLLLNSKRHREMRERLLQIRQQRQRFKQQRKRG” belongs “failed”; to “MRDILKKELILLGILISISFAGCVDQNPEEYYSKGILQYDDGNYTESIDLFEKAIQLNPEESKYWLMKGKALYNLERYEEAVDCYNYVINVIEDEYNKDVWAAKADALRHIEGKEVEAEIAEARAK”, “failed”; to “MRDITAQGSNVEEAIQNALATLETTRDKVEVEVLDEGKKGIFGIGSRLAMVKVIEKEDGIQVAIDYLLDVATKMGAVITIDVEEVGKDVKLQIKGESLGMLIGKHGQTLNALQYLTQLIANKTTSQYKNIIVNVGDYRERRHETLVLLANKMADKALKTKRAVHLEPMPSFERKIIHAILSENEQIETHSEGRDPYRYIVIKPVKK”, “failed”.
Then “MRDTIPVTILSGSLGAGKTTLLNHLLTEAGDRDIAVLVNDMGTVNVDAELIAEGSELDVDDGVAELSNGCICCELQDDLETAVVRLADDRDFDALVVESSGISEPAPVARLFTTESRVAALYRVDTLVTVLDTRLFLDSFAGETPERRGSGEASADGDGDDTEADGADRPLSDLMVEQVELSNLVVLNKTDLCTDEEMDEAEELVRALQPDAETIRTTFSQVDPDRLFDRALFDQTEISDLPGWKRALAESGHGHGEGSHDHGGDSHETDAHEGDTGHGHDDHHHPEEVYGVTSFTYRRRRPFHPDRLAEVLQDLPSGVVRSKGTVWLAGSERRVVIGQAGPSIRAEAQGPWIASLPEVEQDMYRSNRPELDWHDEHGDRRTELVFIGTDYDESALRTALDDALVTDEEWTESESLTGPFPAEQGEEAVIRSP”, with “not failed”; and “MRDYVEIGMGREARRTYHLDSVAIVPSRRTRSSKDVDTTWHIDAYTFDIPFMSHPTDALATPDFVIEMDKQGGLGVINAEGLWGRHADLDAAIQEVITAYGDDELDLGSCNRATKKLQELHAAALDTELLVERIAQVRSSGAT”, with “failed”.
For “MREAIIKRAAKELKEGMYVNLGIGLPTLVANEVSGMNIVFQSENGLLGIGAYPLEGSVDADLINAGKETITVVPGASFFNSADSFAMIRGGHIDLAILGGMEVSQNGDLANWMIPKKLIKGMGGAMDLVHGAKKVIVIMEHCNKYGESKVKKECSLPLTGKGVVHQLITDLAVFEFSNNAMKLVELQEGVSLDQVKEKTEAEFEVRL”, the protein production entry is recorded as “failed”.
On to “MREIIVDNFAGGGGASTGIELAIGRSVDIAINHDPNAVAMHTTNHPDTLHYCESVYSIRPKVATAGRRVGLAWFSPDCRHFSKAKGAKPVEKTIRGLAWIVIRWALDVGPRVMMLENVEEFKTWGPLLAAEMRPDPERVGETFQAFVGMLTTGIPADHPALLECCEFLNISLDSEDAARLVNGLGYTVEYRELRACDYGAPTIRKRFFMVMRRDGQPIVWPEATHGDPKSPAVLAGKLAPWRTAAECIDWSIPAPSIFDRKKPLVENSLKRIARGI”, for which the protein production entry is “failed”.
As to “MRELFKSVRGFFRLLRMIFPKRLKNAFLGLSELFYYASSLSFYTILSLSPILLFVFSLFVSHYLQAHSGEMEALIFPNAPKLIGAIKDFLENFKKTDMTLGTLEEVSIVVALVLFCENYRSIASKIFQAKPRDYAHFKGKEIFLFWGFGTTLVFLFALPLVVFFDIKIQVFFEDKNSNLLHVLRWIGTYAFFLILFTIPTNKVFKHYFWVFLWVFFTSVSWHVLKWAFTYYVLYNRTYHELYGSVSILWFLMSWVYVSWLVILIGMYGCKVCDAFDPKEVFKKFLGFFKKET”, the protein production result is reported as “failed”.
Turning to “MRERAASARGVQLARSSRVFRKAEWWNDARRFRTVIASAAKQSDRHRGDSPGLLRCARNDACEAMAERHTATGSDRSTSSLASFELRVERNATFPGNVTRLLHLIVVLLLVAGRTAFAAPCQFESQGDGRVAAIVDARSVRLDDGREIRLTGIEPTATTKQALASLLVGRDVTLRSADDTPDRYGRQGGLIFIGDSDTPVQAMLLAQGDAIVSAEIADKDCAAALMSSEAEARRQKKGNWADPSAIKNAESPDDILAGIGRFVVVEGKVLSVRQAGAMTYLNFGRNWTRGFAVTISRRASPAFETAGIALKSLENRRIRVRGWVEGNTGPRIDVRLVGQVELLGANEPAGVRP”, the protein production result was “failed”.
Then “MRERVLFFDLLRCVAAVAVIAIHVLAPYRNELGVIPMDQWLTAVGVNSVTRWAVPVFILITGALMLSDTRPFDGKYYVKRRLGKVLVPFLIWSTFYAYLSGWTAQGFDFETVKEVLSNSPFHATYYHLGFFYYFIPLYFVIPLFQWMARNVDDNVLYTYLAFWMFTSTLFLFKIDGPWSNQMWLYMGYLPLGYVLFQKVPLNRSMVTLFTGFGLVALAVTFTMVVTNSLEAEKYTVGRWLSYKTLNVILAASMIFMLCRYFGEGLPKNVQKVVSFISQHSLGIYLLHPIFLWPMKEFGWYTGHPGWVIPVWIVLSGAGALAMSYLFSKSAKTRWLLP”, with “failed”; and “MRETFADDLRSLHNKLIEMGRLTEVALQQAIEAFQTQNKNLAMAVIDGDGSIDKLEEEVNDFALWLIAKQQPVATDLRRIVAAIKIASDIERIADFAVNIAKACIRIGGQPFVMDIGPLVLMYRLATDMVSTAIAAYDREDASLAAQIADMDHRVDEQYGEMMKSLLEVEKTDKETLAQMNVLALVARYIERTADHATNIAEHLVYLVKGKHYDFND”, with “not failed”.
Turning to “MRETRPNPQEILKEINKNEKDSKRGKLKIFFGYAAGVGKTYAMLEAAHSAIAMGLDVVVGYIEPHTRPETLALLEGLELLPNLEVAYRGLVLREFNLDLALSRKPDLIIVDELAHTNVKGLRHEKRYSDIEELLDAGIDVYTTLNVQHIESLNDVVASITNIVVKERIPDRIFKNAFQIELIDVDPSVLIERLNSGKIYVKNQAKKALKNFFIRENLVALRELALRETANSVNKEVMINKNENFYHTNEHILVCLSSSPSNSKVIRTSARMAEAFHGKFTALFVETTSSRELKEGNIERLREHVKLAKDLGAKIETVYGDDVAYQVSEFSKISSVSKVIIGRTKKKRHLWSRFGIVDRLIELAPELDVYIIPDEEENVEDINKICLNKEKITIKDSLKTLGILIITIIISLFFENLGFSEANIIIVFILGVLIIAKETYGRIYGVISSLFSVLLFNFFFTEPKFTFNAYDSSYIFTFFIMLVSALITSTLTNKVKVQANKSAITAYRTNILLESSSELGRCSDLEEIILKSQEQVSRLVKKPVVVYKAKNSQIENIYNYKFKDGSELSDKYINLDEQGVVLWVINNRKYAGKGTETLPGAKAMYIPVLGQEDIGIVIGIILEEGEELEEGEKSLLIAMINQVSFVIDNYILEEAKKQALMQAENEKFKANLLRAVSHDLRTPLTSISGSASLLLNNNFDEETKRKLTLDIYDDSIWLINLVENLLSVSRIDNGNINLNREAQLVEEIILEALQHVNRNACDYNIEIDLKDELLMVNADVRLIIQVIINIVDNAIKYTEKGSNIKISAFSKGDNVIIEIADNGVGISKEDKEHIFDMFFTSKKNISDSRRGLGLGLALCKSIINVHEGEIYVRDNKPRGTIIGFSLQRFEVNNNETSNFSY”, the protein production result is reported as “failed”.
To “MRETVKLIEVARELPVSRKNLQMLLLLLLCGAAAYIINLADPALEPLFLALVFGIVAGNLQRDEEKKRVVERYVPFLLPIGITLYGVNINIPYLGEFHPEIVAATLISTSLIFLTVFWLSSRLKLSRQMSILLACGSGICGVSAIAIISPLIKPRKEEFSAAIMIITAVGLTGAILYPSIAHYASISPDEFAVLAGATLHQTGIVKISSQLFGVEEEALAIKGIRIAMIALVVLILSIIYSESRFYVPWYIVSFLGVALFSSTYLPGEVVQALRPLATVMFATTLAAICYTVNVGRVQRVGVKPLFASYAGWAVGVAFVLLLLGSGAL” belongs “failed”; to “MRFHLPGPEDTVRLGRALAKALLQIDGLRVVLLAGTLGSGKTTMTRGLVAELPGGGMAEVSSPSFNICNLYPTTPPTAHFDLYRLEGNEPDDALLDLIDEGESIILIEWAEHLPEYALPPVWLRLAWHAAGEGRIVEAHGNGAPALVALDMVAAGVPDLVQP”, “failed”; to “MRFLFSLIGLVYSSLIKLAVPFNPKARMMVRGRWKVWRQLREGIVPGGRYIWFHAASLGEFEQGRPMIERIRSEYPDYRIVLTFFSPSGYEVRKNYEGADVIVYLPADRLPRVRKFLDLVKPEMAIFIKYDFWPCFLTELERRQIPTYLVSSIFRPSQLFFRWYGGAYKRLLHCFTHIFVQDKASRLLLEKHGIDHVSVAGDTRFDRVISVYEARKSLPLIERFAASVPEDGLVIVGGSSWPPDEEILVRYFNRNPKIKLILAPHEIDKEHLLQIISHIRRPFIRLSEATESDIARQDCLIVDSFGLLSSIYRYGQVAFIGGGFGKGIHNTPEAAVYGIPVIFGPRYEKFKEARELIDVGGGFSVSSAEEFGNLIKRIQTDKAYRDAASRAAADYIRSNAGATGYIVHRIMKLEHHHHHH”, “not failed”.

Values taken from a protein production outcome set (Wang et al. 2014).
